Assay results taken from US20040005648A1, “PYK2 related products and methods” (Sugen, Inc., priority 1994, published 2004).

B1: NGF: growth factor stimulus of PC12 cells (protein, UniProt P25427 122-241, looked up)
Beta-nerve growth factor: SSTHPVFHMGEFSVCDSVSVWVGDKTTATDIKGKEVTVLGEVNINNSVFKQYFFETKCRAPNPVESGCRGIDSKHWNSYCTTTHTFVKALTTDDKQAAWRFIRIDTACVCVLSRKAARRG
modifications: Beta-nerve growth factor
notes: growth factor stimulus of PC12 cells
B2: EGF: growth factor stimulus (protein, UniProt P01133 23-1207, looked up)
Pro-epidermal growth factor: PQHWSCPEGTLAGNGNSTCVGPAPFLIFSHGNSIFRIDTEGTNYEQLVVDAGVSVIMDFHYNEKRIYWVDLERQLLQRVFLNGSRQERVCNIEKNVSGMAINWINEEVIWSNQQEGIITVTDMKGNNSHILLSALKYPANVAVDPVERFIFWSSEVAGSLYRADLDGVGVKALLETSEKITAVSLDVLDKRLFWIQYNREGSNSLICSCDYDGGSVHISKHPTQHNLFAMSLFGDRIFYSTWKMKTIWIANKHTGKDMVRINLHSSFVPLGELKVVHPLAQPKAEDDTWEPEQKLCKLRKGNCSSTVCGQDLQSHLCMCAEGYALSRDRKYCEDVNECAFWNHGCTLGCKNTPGSYYCTCPVGFVLLPDGKRCHQLVSCPRNVSECSHDCVLTSEGPLCFCPEGSVLERDGKTCSGCSSPDNGGCSQLCVPLSPVSWECDCFPGYDLQLDEKSCAASGPQPFLLFANSQDIRHMHFDGTDYGTLLSQQMGMVYALDHDPVENKIYFAHTALKWIERANMDGSQRERLIEEGVDVPEGLAVDWIGRRFYWTDRGKSLIGRSDLNGKRSKIITKENISQPRGIAVHPMAKRLFWTDTGINPRIESSSLQGLGRLVIASSDLIWPSGITIDFLTDKLYWCDAKQSVIEMANLDGSKRRRLTQNDVGHPFAVAVFEDYVWFSDWAMPSVMRVNKRTGKDRVRLQGSMLKPSSLVVVHPLAKPGADPCLYQNGGCEHICKKRLGTAWCSCREGFMKASDGKTCLALDGHQLLAGGEVDLKNQVTPLDILSKTRVSEDNITESQHMLVAEIMVSDQDDCAPVGCSMYARCISEGEDATCQCLKGFAGDGKLCSDIDECEMGVPVCPPASSKCINTEGGYVCRCSEGYQGDGIHCLDIDECQLGEHSCGENASCTNTEGGYTCMCAGRLSEPGLICPDSTPPPHLREDDHHYSVRNSDSECPLSHDGYCLHDGVCMYIEALDKYACNCVVGYIGERCQYRDLKWWELRHAGHGQQQKVIVVAVCVVVLVMLLLLSLWGAHYYRTQKLLSKNPKNPYEESSRDVRSRRPADTEDGMSSCPQPWFVVIKEHQDLKNGGQPVAGEDGQAADGSMQPTSWRQEPQLCGMGTEQGCWIPVSSDKGSCPQVMERSFHMPSYGTQTLEGGVEKPHSLLSANPLWQQRALDPPHQMELTQ
modifications: Pro-epidermal growth factor
notes: growth factor stimulus

Key:
[1] = system: Shc; experiment: Tyrosine phosphorylation of Shc in stimulated PC12 cells (anti-Shc immunoprecipitation, anti-phosphotyrosine immunoblot); type: cell-based, rat
Description: Tyrosine phosphorylation of Shc in response to bradykinin, carbachol, PMA and other stimuli was also measured. Quiescent PC12 cells were stimulated for 5 min at 37° C. with bradykinin (1AM), carbachol (1 mM), KC1 (75 mM), PMA (1.6pM), NGF (100 ng/ml), or left unstimulated (−). The cells were also stimulated with carbachol (1 mM) or potassium chloride (75 mM) in the presence of 3 mM EGTA. Stimulations with DMPP (100 μM) or muscarine (1 mM) were preformed under the same conditions. […] The Shc proteins were immunoprecipitated with anti-Shc antibodies, the immunoprecipitates were resolved by SDS-PAGE (8%1, transferred to nitrocellulose and immunoblotted with anti-phosphotyrosine antibodies.

[2] = system: PYK-2; experiment: Tyrosine phosphorylation of PYK-2 in NIH3T3 cell lines that overexpress PYK-2; type: cell-based, mouse; settings: NIH3T3 cells overexpressing PYK-2 / PYK-2-HA; TPA 6 μM, 15 min at 37° C.
Description: Stable cell lines of NIH3T3 that overexpress PYK2 were established by contransfection of PYK2 subcloned into pLSV together with pSV2neo utilizing lipofectamine reagent (GIBCO BRL). Following transfection the cells were grown in Dulbecco's modified Eagle's medium containing 10% fetal bovine serum and 1 mg/ml G418. Transient transfections into 293 cells were performed by using the calcium phosphate technique (*).
The PYK-2 cDNA cloned in PLSV was cotransfected with pSV2neo into PC12 cells and NIH3T3 in order to establish stable cell lines. G418 resistant colonies were screened by immunoprecipitating and immunoblotting.
NIH3T3 cell lines were established that overexpress the PYK-2 and the PYK-2-HA protein. […] The level of phosphorylation is not so high.

Molecule | duration of stimulation of Shc phosphorylation after addition [1] | tyrosine phosphorylation of Shc in response to the agent [1] | tyrosine phosphorylation of PYK-2 in response to the agent [2]
B1 | five | induced persistent stimulation of Shc phosphorylation | 
B2 |  |  | undergoes tyrosine phosphorylation
